Data: PMC9482650, “Quantitative fragmentomics allow affinity mapping of interactomes” (Nature Communications, 2022)

Experiments:
Experiment in all cases: holdup assay
Parameters in all cases: key: below the threshold = too weak to quantify, mostly under pKd 3.1 to 4
Conditions in all cases: plain residues with an end cap or a label only (N-terminal biotin on a linker: ado-ado)
NOS1, P29475 = molecular target: NOS1, P29475
Inadl_10, Q8NI35 = molecular target: Inadl_10, Q8NI35
TJP3_3, O95049 = molecular target: T1, TJP3_3, O95049
T1 sequence (O95049 375-456, limits assumed, looked up): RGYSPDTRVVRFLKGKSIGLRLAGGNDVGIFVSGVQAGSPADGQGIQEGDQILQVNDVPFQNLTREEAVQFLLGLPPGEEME

APBA2_2, Q99767 = molecular target: T2, APBA2_2, Q99767
T2 sequence (Q99767 654-744, limits assumed, looked up): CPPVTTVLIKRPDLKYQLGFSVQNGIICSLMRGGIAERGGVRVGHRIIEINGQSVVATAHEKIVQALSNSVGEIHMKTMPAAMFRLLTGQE

ARHGAP21, Q5T5U3 = molecular target: T3, ARHGAP21, Q5T5U3
T3 sequence (Q5T5U3 45-169, limits assumed, looked up): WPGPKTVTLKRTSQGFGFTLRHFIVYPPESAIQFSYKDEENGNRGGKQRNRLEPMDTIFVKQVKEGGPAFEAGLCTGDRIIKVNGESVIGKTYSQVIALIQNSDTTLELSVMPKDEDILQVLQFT

CARD11, Q9BXL7 = molecular target: T4, CARD11, Q9BXL7
T4 sequence (Q9BXL7 662-765, limits assumed, looked up): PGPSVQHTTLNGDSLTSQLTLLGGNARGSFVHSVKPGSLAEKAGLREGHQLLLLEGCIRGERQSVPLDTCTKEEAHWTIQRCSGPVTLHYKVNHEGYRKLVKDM

LNX2_2, Q8N448 = molecular target: T5, LNX2_2, Q8N448
T5 sequence (Q8N448 334-432, limits assumed, looked up): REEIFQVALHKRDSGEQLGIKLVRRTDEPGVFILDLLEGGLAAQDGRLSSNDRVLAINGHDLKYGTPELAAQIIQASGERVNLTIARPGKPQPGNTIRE

Inadl_4, Q8NI35 = molecular target: Inadl_4, Q8NI35
Sequence of Inadl_4, Q8NI35 (Q8NI35 547-651): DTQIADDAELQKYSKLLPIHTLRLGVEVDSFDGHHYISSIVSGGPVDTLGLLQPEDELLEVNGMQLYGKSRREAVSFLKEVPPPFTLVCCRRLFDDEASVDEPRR

HTRA3, P83110 = molecular target: T6, HTRA3, P83110
T6 sequence (P83110 354-453, limits assumed, looked up): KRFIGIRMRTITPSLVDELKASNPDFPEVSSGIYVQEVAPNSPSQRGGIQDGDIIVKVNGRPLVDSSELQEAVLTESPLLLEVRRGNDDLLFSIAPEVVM

MAGI2_6, Q86UL8 = molecular target: MAGI2_6, Q86UL8
Sequence of MAGI2_6, Q86UL8 (Q86UL8 1141-1229): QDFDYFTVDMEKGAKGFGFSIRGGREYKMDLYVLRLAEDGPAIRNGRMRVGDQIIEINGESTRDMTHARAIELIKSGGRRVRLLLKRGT

IL16_3, Q14005 = molecular target: IL16_3, Q14005
Sequence of IL16_3, Q14005 (Q14005 1107-1207): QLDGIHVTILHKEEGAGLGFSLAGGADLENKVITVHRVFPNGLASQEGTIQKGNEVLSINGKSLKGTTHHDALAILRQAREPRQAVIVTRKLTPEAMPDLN

SNX27, Q96L92 = molecular target: SNX27, Q96L92
NHERF4_2, Q86UT5 = molecular target: NHERF4_2, Q86UT5
Sequence of NHERF4_2, Q86UT5 (Q86UT5 220-308): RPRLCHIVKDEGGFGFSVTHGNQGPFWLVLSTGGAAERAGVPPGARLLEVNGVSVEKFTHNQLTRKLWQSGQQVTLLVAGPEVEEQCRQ

DFNB31_1, Q9P202 = molecular target: T7, DFNB31_1, Q9P202
T7 sequence (Q9P202 135-233, limits assumed, looked up): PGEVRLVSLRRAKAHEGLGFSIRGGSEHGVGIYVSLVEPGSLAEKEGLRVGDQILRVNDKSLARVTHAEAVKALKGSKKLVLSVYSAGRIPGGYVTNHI

SNTB1, Q13884 = molecular target: T8, SNTB1, Q13884
T8 sequence (Q13884 107-205, limits assumed, looked up): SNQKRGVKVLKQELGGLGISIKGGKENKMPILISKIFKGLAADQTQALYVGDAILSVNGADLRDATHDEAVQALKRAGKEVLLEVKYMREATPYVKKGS

PICK1, Q9NRD5 = molecular target: PICK1, Q9NRD5
Sequence of PICK1, Q9NRD5 (Q9NRD5 17-115): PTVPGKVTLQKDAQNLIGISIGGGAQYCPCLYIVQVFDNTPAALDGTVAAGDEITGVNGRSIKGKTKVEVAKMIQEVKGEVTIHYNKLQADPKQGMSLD

SCRIB_1, Q14160 = molecular target: SCRIB_1, Q14160
Sequence of SCRIB_1, Q14160 (Q14160 718-814): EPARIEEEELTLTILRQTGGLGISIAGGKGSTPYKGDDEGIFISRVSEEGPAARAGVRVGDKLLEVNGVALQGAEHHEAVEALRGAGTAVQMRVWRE

SNTG1, Q9NSN8 = molecular target: T9, SNTG1, Q9NSN8
T9 sequence (Q9NSN8 52-150, limits assumed, looked up): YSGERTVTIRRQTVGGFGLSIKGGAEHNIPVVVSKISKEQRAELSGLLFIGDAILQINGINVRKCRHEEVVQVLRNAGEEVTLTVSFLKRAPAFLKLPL

DFNB31_2, Q9P202 = molecular target: T10, DFNB31_2, Q9P202
T10 sequence (Q9P202 274-371, limits assumed, looked up): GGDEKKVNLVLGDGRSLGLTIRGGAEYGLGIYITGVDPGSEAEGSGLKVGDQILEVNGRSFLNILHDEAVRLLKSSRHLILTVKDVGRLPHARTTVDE

PTPN3, P26045 = molecular target: PTPN3, P26045
Sequence of PTPN3, P26045 (P26045 505-587): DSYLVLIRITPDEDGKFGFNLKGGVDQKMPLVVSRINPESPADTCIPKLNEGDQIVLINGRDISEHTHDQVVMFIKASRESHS

FRMPD4, Q14CM0 = molecular target: FRMPD4, Q14CM0
Sequence of FRMPD4, Q14CM0 (Q14CM0 67-160): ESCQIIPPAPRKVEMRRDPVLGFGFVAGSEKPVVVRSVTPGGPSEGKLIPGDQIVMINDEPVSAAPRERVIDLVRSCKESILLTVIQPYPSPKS

MPDZ_12, O75970 = molecular target: T11, MPDZ_12, O75970
T11 sequence (O75970 1857-1958, limits assumed, looked up): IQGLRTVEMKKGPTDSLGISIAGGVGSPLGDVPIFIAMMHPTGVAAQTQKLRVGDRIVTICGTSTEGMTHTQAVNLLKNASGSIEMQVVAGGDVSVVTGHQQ

GIPC2, Q8TF65 = molecular target: GIPC2, Q8TF65
Sequence of GIPC2, Q8TF65 (Q8TF65 112-203): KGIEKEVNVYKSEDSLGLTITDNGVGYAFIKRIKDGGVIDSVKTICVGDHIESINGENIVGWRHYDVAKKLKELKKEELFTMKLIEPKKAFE

RAPGEF6, Q8TEU7 = molecular target: T12, RAPGEF6, Q8TEU7
T12 sequence (Q8TEU7 525-625, limits assumed, looked up): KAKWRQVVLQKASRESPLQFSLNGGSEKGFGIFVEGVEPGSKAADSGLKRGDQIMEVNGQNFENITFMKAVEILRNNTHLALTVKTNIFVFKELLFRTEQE

DFNB31_3, Q9P202 = molecular target: T13, DFNB31_3, Q9P202
T13 sequence (Q9P202 811-907, limits assumed, looked up): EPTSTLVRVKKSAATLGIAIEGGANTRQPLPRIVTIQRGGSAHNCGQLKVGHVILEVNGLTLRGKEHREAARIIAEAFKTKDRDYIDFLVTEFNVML

Sequence of Inadl_10, Q8NI35 (Q8NI35 1673-1763): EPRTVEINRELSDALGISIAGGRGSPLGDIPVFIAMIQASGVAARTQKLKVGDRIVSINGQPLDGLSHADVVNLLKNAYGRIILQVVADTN
Sequence of NOS1, P29475 (P29475 9-101): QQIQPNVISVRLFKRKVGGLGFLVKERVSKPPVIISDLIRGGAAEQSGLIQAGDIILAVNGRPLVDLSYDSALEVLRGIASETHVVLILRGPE

| Binder | pKd (NOS1, P29475) | pKd (Inadl_10, Q8NI35) | pKd (TJP3_3, O95049) | pKd (APBA2_2, Q99767) | pKd (ARHGAP21, Q5T5U3) | pKd (CARD11, Q9BXL7) | pKd (LNX2_2, Q8N448) | pKd (Inadl_4, Q8NI35) | pKd (HTRA3, P83110) | pKd (MAGI2_6, Q86UL8) | pKd (IL16_3, Q14005) | pKd (SNX27, Q96L92) | pKd (NHERF4_2, Q86UT5) | pKd (DFNB31_1, Q9P202) | pKd (SNTB1, Q13884) | pKd (PICK1, Q9NRD5) | pKd (SCRIB_1, Q14160) | pKd (SNTG1, Q9NSN8) | pKd (DFNB31_2, Q9P202) | pKd (PTPN3, P26045) | also measured |
| --- | --- | --- | --- | --- | --- | --- | --- | --- | --- | --- | --- | --- | --- | --- | --- | --- | --- | --- | --- | --- | --- |
| YYKRPVQEWV [MMP24, Q9Y5R2] | 4.39 | below the threshold | 5 | below the threshold | below the threshold | below the threshold | 4.86 | below the threshold | 5.7 | 4.31 | below the threshold | 4.2 | below the threshold | below the threshold | below the threshold | below the threshold | below the threshold | below the threshold | below the threshold | 3.88 | pKd (FRMPD4, Q14CM0): below the threshold; pKd (MPDZ_12, O75970): 4.39; pKd (GIPC2, Q8TF65): below the threshold; pKd (RAPGEF6, Q8TEU7): below the threshold; pKd (DFNB31_3, Q9P202): 3.63 |
| SKSNFGSEPL [KIF17, Q9P2E2] | below the threshold | below the threshold | below the threshold | below the threshold | 3.56 | below the threshold | below the threshold | below the threshold | below the threshold | below the threshold | below the threshold | below the threshold | below the threshold | below the threshold | below the threshold | below the threshold | below the threshold | below the threshold | below the threshold | 3.95 | pKd (FRMPD4, Q14CM0): below the threshold; pKd (MPDZ_12, O75970): below the threshold; pKd (GIPC2, Q8TF65): below the threshold; pKd (RAPGEF6, Q8TEU7): below the threshold; pKd (DFNB31_3, Q9P202): below the threshold |
| DTTVPESEDL [MYOZ2, Q9NPC6] | below the threshold | below the threshold | below the threshold | below the threshold | below the threshold | below the threshold | below the threshold | below the threshold | below the threshold | 4.11 | below the threshold | 3.65 | below the threshold | below the threshold | below the threshold | below the threshold | below the threshold | below the threshold | below the threshold | 4.25 | pKd (FRMPD4, Q14CM0): 3.66; pKd (MPDZ_12, O75970): below the threshold; pKd (GIPC2, Q8TF65): below the threshold; pKd (RAPGEF6, Q8TEU7): below the threshold; pKd (DFNB31_3, Q9P202): below the threshold |
| PDGQCTVTEV [RNF146, Q9NTX7] | 3.74 | 3.58 | below the threshold | below the threshold | below the threshold | below the threshold | 5.08 | below the threshold | below the threshold | 4.71 | below the threshold | 5.19 | 3.59 | 3.9 | 4.37 | below the threshold | 4.68 | 4.68 | below the threshold | 4.99 | pKd (FRMPD4, Q14CM0): below the threshold; pKd (MPDZ_12, O75970): below the threshold; pKd (GIPC2, Q8TF65): 3.78; pKd (RAPGEF6, Q8TEU7): below the threshold; pKd (DFNB31_3, Q9P202): 3.99 |
| SAKVRTVTSV [RASL11B, Q9BPW5] | 3.9 | below the threshold | below the threshold | below the threshold | below the threshold | below the threshold | 4.9 | below the threshold | below the threshold | 3.85 | below the threshold | 4.73 | below the threshold | 3.77 | 3.64 | below the threshold | 4.17 | 3.62 | below the threshold | 4.6 | pKd (FRMPD4, Q14CM0): below the threshold; pKd (MPDZ_12, O75970): below the threshold; pKd (GIPC2, Q8TF65): below the threshold; pKd (RAPGEF6, Q8TEU7): below the threshold; pKd (DFNB31_3, Q9P202): below the threshold |
